Laboratory results reported in the supplement of paper PMC11908140.

B1: library; numbered along this chain (parent)
chain: MRKPRAAVGSGHRKQAASQEGRQKHAKNNSQAKPSACDGLARQPEEVVLQASVSSYHLFRDVAEVTAFRGSLLSWYDQEKRDLPWRRRAEDEMDLDRRAYAVWVSEVMLQQTQVATVINYYTGWMQKWPTLQDLASASLEEVNQLWAGLGYYSRGRRLQEGARKVVEELGGHMPRTAETLQQLLPGVGRYTAGAIASIAFGQATGVVDGNVARVLCRVRAIGADPSSTLVSQQLWGLAQQLVDPARPGDFNQAAMELGATVCTPQRPLCSQCPVESLCRARQRVEQEQLLASGSLSGSPDVEECAPNTGQCHLCLPPSEPWDQTLGVVNFPRKASRKPPREESSATCVLEQPGALGAQILLVQRPNSGLLAGLWEFPSVTWEPSEQLQRKALLQELQRWAGPLPATHLRHLGEVVHTFSHIKLTYQVYGLALEGQTPVTTVPPGARWLTQEEFHTAAVSTAMKKVFRVYQGQQPGTCMGSKRSQVSSPCSRKKPRMGQQVLDNFFRSHISTDAHSLNSAAQ

Variants of: B1
Test: 8OG:A repair function score (normalized; synonymous = 0, nonsense = -1) (normalized log-likelihood score); higher = more repair activity (WT-like)
Details: with 8OG:A DNA repair reporter (GFP) in HEK-293 MUTYH KO cells
Procedure, shortened: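 Lentiviral MUTYH cDNA NNN codon-scan libraries were expressed in MUTYH knockout HEK-293 cells with 10 pg/ml doxycycline, and the cells received an 8OG:A GFP repair reporter together with mCherry. At 72 h, viable mCherry+ cells went into GFP+ (repair) or GFP− bins, three replicates per tile, before tile amplicons were sequenced. A repair function score was then built from per-tile Rosace fitness scores, anchored on the synonymous and nonsense distributions. Synonymous medians sat at 0 and nonsense at -1, and variants under 300 counts per million at the start were left out.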
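Further: cells sorted at 72 h after reporter transfection.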

Variant | 8OG:A repair function score
Q265A | -0.0137
Q265D | -0.156
Q265W | -0.0937
Q265S | -0.0301
Q265P | -0.252
Q265L | -0.0663
Q265T | 0.00721
Q265H | 0.0203
Q265V | -0.0775
Q265N | -0.0302
Q265E | -0.243
Q265C | -0.0499
Q265I | -0.0274
Q265F | -0.022
Q265M | -0.0825
Q265Y | -0.00929
Q265R | 0.00654
Q265G | -0.0557
Q265K | -0.0319
T263V | -0.0463
T263R | -0.0312
T263G | -0.115
T263M | -0.0448
T263E | -0.267

Variant | 8OG:A repair function score
T263C | -0.141
T263P | -0.461
T263W | -0.28
T263D | -0.24
T263K | -0.017
T263A | -0.167
T263Y | -0.113
T263H | -0.124
T263I | -0.0749
T263L | -0.0322
T263F | -0.0981
T263S | -0.0723
T263N | -0.0422
T263Q | -0.129
C262R | -1.05
C262V | -1.26
C262K | -1.3
C262W | -0.941
C262N | -1.19
C262Q | -1.27
C262M | -1.06
C262S | -1.38
C262Y | -1.21
C262T | -1.19

Variant | 8OG:A repair function score
C262I | -1.12
C262G | -1
C262H | -1.1
C262P | -1.18
C262L | -1.26
R279N | -0.123
R279P | -1.12
R279G | -0.388
R279C | -0.251
R279K | -0.0521
R279F | -0.277
R279H | -0.0508
R279S | -0.377
R279V | -0.344
R279M | -0.178
R279I | -0.172
R279T | -0.339
R279D | -0.718
R279Q | -0.155
R279E | -0.233
R279L | -0.146
R279A | -0.278
C272F | -1.42
C272N | -1.21

Variant | 8OG:A repair function score
C272H | -1.32
C272P | -1.26
C272S | -1.17
C272A | -1.16
C272E | -1.29
C272V | -1.12
C272K | -1.41
C272I | -1.3
C272D | -1.28
C272Q | -1.09
C272T | -1.24
C272Y | -0.982
C272G | -1.24
C272M | -1.19
C272W | -1.09
C272L | -1.26
C272R | -1.35
R266E | -0.22
R266W | -0.135
R266A | -0.0544
R266P | -0.449
R266Y | -0.102
R266K | 0.00702
R266Q | -0.165

Variant | 8OG:A repair function score
R266H | 0.00581
R266C | -0.085
R266L | -0.152
R266V | -0.119
R266F | -0.104
R266N | -0.0656
R266D | -0.269
R266G | -0.111
R266S | -0.0823
R266M | -0.0578
R266I | -0.164
R266T | -0.142
P273E | -0.952
P273C | -0.28
P273Q | -0.798
P273A | -0.171
P273S | -0.426
P273T | -0.453
P273R | -0.526
P273F | -0.844
P273I | -0.662
P273K | -0.708
P273N | -0.903
P273V | -0.419

Variant | 8OG:A repair function score
P273D | -1.05
P273W | -0.748
P273L | -0.946
P273H | -0.569
P273G | -0.625
P273Y | -0.661
P273M | -1.05
L277A | -0.125
L277Y | 0.014
L277N | -0.0739
L277E | -0.204
L277Q | -0.0714
L277V | -0.0751
L277F | 0.00162
L277M | 0.00781
L277W | -0.00135
L277P | -0.383
L277C | -0.0293
L277T | -0.115
L277S | -0.022
L277H | -0.0518
L277K | -0.17
L277I | -0.036
L277D | -0.199

Variant | 8OG:A repair function score
L277R | -0.152
P267R | -1.04
P267E | -0.836
P267H | -0.87
P267D | -1.1
P267K | -1.06
P267W | -1.06
P267N | -0.863
P267L | -1.03
P267G | -0.225
P267Q | -0.679
P267Y | -0.838
P267T | -0.202
P267S | -0.361
P267C | -0.372
P267M | -0.774
P267F | -0.919
P267I | -0.711
P267A | -0.131
P267V | -0.195
P264A | -0.0364
P264N | -0.0423
P264S | -0.0872
P264M | -0.233

Variant | 8OG:A repair function score
P264Q | -0.145
P264C | -0.102
P264L | -0.0962
P264G | -0.159
P264I | -0.1
P264V | -0.0712
P264K | -0.048
P264T | -0.066
P264R | -0.0983
P264W | -0.113
P264F | -0.223
P264D | -0.274
P264Y | -0.087
P264E | -0.25
P264H | -0.113
E275D | -0.113
E275T | 0.0286
E275V | 0.0153
E275M | 0.00516
E275W | -0.0767
E275P | -0.152
E275Y | -0.0195
E275A | 0.0221
E275N | -0.00161

Variant | 8OG:A repair function score
E275I | -0.0114
E275R | 0.00881
E275Q | 0.0396
E275S | 0.00561
E275H | 0.015
E275G | -0.00445
E275C | -0.0803
E275K | 0.00478
E275F | 0.0124
E275L | -0.00764
C269G | -1.26
C269S | -1.28
C269P | -1.04
C269I | -1.26
C269M | -1.18
C269T | -1.06
C269E | -1.16
C269Y | -1.12
C269L | -1.21
C269F | -1.16
C269A | -1.29
C269W | -1.4
C269R | -1.15
C269D | -0.992

Variant | 8OG:A repair function score
C269K | -1.17
C269V | -1.27
C269N | -1.31
C269Q | -1.19
C269H | -0.96
Q271D | -0.0548
Q271M | -0.0166
Q271I | -0.0397
Q271W | -0.0164
Q271T | -0.00163
Q271A | 0.0211
Q271L | -0.00321
Q271P | -0.311
Q271G | -0.0498
Q271E | -0.00693
Q271K | 0.0343
Q271R | 0.0206
Q271C | -0.0175
Q271Y | -0.0212
Q271F | -0.0282
Q271H | -0.0231
Q271V | 0.0124
Q271S | -0.0229
Q271N | 0.0195

Variant | 8OG:A repair function score
S276N | -0.00423
S276L | -0.0125
S276G | -0.00134
S276D | 0.00885
S276A | 0.0102
S276Y | 0.0309
S276P | -0.0133
S276I | -0.0404
S276V | -0.0409
S276R | -0.0136
S276K | 0.0174
S276M | -0.0454
S276H | 0.0172
S276T | 0.0017
S276W | -0.0968
S276F | -0.0215
S276Q | 0.0194
S276C | -0.133
S276E | -0.0386
V274R | -0.994
V274K | -1.03
V274A | -0.219
V274H | -0.563
V274E | -0.423

Variant | 8OG:A repair function score
V274G | -0.676
V274I | -0.0406
V274Y | -0.549
V274D | -1.01
V274N | -0.714
V274Q | -0.544
V274W | -0.16
V274C | -0.176
V274M | -0.0354
V274L | -0.0284
V274F | -0.303
V274S | -0.589
V274P | -1.23
V274T | -0.241
C278T | -1.15
C278A | -1.11
C278K | -1.26
C278N | -1.1
C278Q | -1.14
C278H | -1.09
C278P | -1.2
C278L | -1.1
C278D | -1.08
C278E | -0.92

Variant | 8OG:A repair function score
C278W | -1.05
C278G | -1.17
C278Y | -0.972
C278M | -1.52
C278R | -1.27
C278I | -1.03
C278V | -1.16
C278F | -1.07
C278S | -1.07
L268S | -0.00947
L268R | 0.00479
L268Q | -0.0131
L268W | -0.0985
L268I | -0.0493
L268G | -0.0658
L268V | -0.0404
L268D | 0.0003
L268F | 0.00448
L268P | -0.285
L268N | -0.0234
L268Y | -0.046
L268E | -0.133
L268A | -0.000124
L268T | 0.012

Variant | 8OG:A repair function score
L268K | 0.0167
L268C | -0.13
L268M | 0.0171
S270R | -0.00848
S270C | -0.0715
S270Q | 0.028
S270V | -0.0277
S270K | -0.0187
S270P | -0.0287
S270L | -0.0471
S270I | -0.0239
S270E | -0.0683
S270N | -0.0408
S270D | -0.0528
S270A | -0.0829
S270W | -0.0132
S270T | -0.0207
S270G | -0.0285
S270F | -0.0287
S270Y | -0.036
S270M | -0.0147
S270H | 0.0198
